Assay results taken from the DeepSol protein solubility set.

Experiment: soluble on expression in E. coli; label from the status in PepcDB or PDB records

Sequence	soluble on expression in E. coli
MQREQTKVFKRVAGIKDKAAIKTLISAAYRQIFERDIAPYIAQNEFSGWESKLGNGEITVKEFIEGLGYSNLYLKEFYTPYPNTKVIELGTKHFLGRAPIDQAEIRKYNQILATQGIRAFINALVNSQEYNEVFGEDTVPYRRFPTLPALEHHHHHH	soluble
MAEIEKTVLVGYSASQMFRLVDTVENYPDFLPWCSGASMKLMEDNETAQATVHIDYHHIKHSFTTKNTRHPPELIKMELVEGPFEKLNGYWRFIPLSENACKIEFQLHYTFSHKLLEKLVGPVFYVIANNFVEAFVEQAEKIYGPSILEHHHHHH	soluble
MGSDKIHHHHHHMRPKILFVVNVDWFFVSHRLPIAVAAQNVGYDVHIACQVTDKKQELEGYGFTVHSISLDRSGTSVLKEFQTMLSIYRLIKKISPALMHMITVKPVIYAGIAARILGVSKVASISGLGFIFIAEGFKSKLLKSLITILYKLALNDGKSRVIFQNDSDKGLFIRRGIISDSNTLLVRGSGVDLDKYQVKPEPESYPVIVLLARLLIDKGVLEFVQAAEILKSKGVPCKMVLAGDTDENPKSVSKNQITDWVNKGIVEYWGYSKDVNSTYANCHIAVLPSYREGLPKSLIEAAACGRAVITTDVPGCRDAITPNKTGLLVPVKSSLELALAIETLCNDSKLRQSLGQEGRQLAEQAFDIKSVIQIHLNLYADLLKGKPSV	not soluble
MDTDNNLTFVDFYYRWLEITKLDIINDTSYKRYITAIKAFKDCFGNKLISDIDSLSYQKFLKDYGRGHFLNNGQLRPRTSNTVSKMNNCLKQAFESAVEQGYIKKNLEHHHHHH	not soluble
GSHMTYPKYLLSPETIEALRKPTFDVWLWEPNEMLSCLEHMYHDLGLVRDFSINPVTLRRWLFCVHDNYRNNPFHNFRHCFCVAQMMYSMVWLCSLQEKFSQTDILILMTAAICHDLDHPGYNNTYQINARTELAVRYNDISPLENHHCAVAFQILAEPECNIFSNIPPDGFKQIRQGMITLILATDMARHAEIMDSFKEKMENFDYSNEEHMTLLKMILIKCCDISNEVRPMEVAEPWVDCLLEEYFMQSDREKSEGLPVAPFMDRDKVTKATAQIGFIKFVLIPMFETVTKLFPMVEEIMLQPLWESRDRYEELKRIDDAMKELQKK	soluble
MSLVMDYEGFKKEIFKLTGIDLGSYKEKQMKRRLDSLISKNNFSGYKTYIEALKTDKKLFNEFINYMTINVSEFYRNPEQWEKLKNIILPSLLEKNSNPKIWSAACSSGDEPYTLVMILNEFLPLNKIKIIATDIDAEILVKAKNGLYTEKSIANLPKKYVEKYFKVDGDVYAINQEVKNCVEFSKHNLLADPYPKNCDLIVCRNVLIYFTEEAKAEIYKKFNRALKTGGVLFVGSTEQIILYNLYNFKPIQTFFYQKEKEGHHHHHH	soluble
MGSDKIHHHHHHMPTLKEKIIQESQRLGIDKIGFTHAEPFIELEDSLHEQRERGYNSGFEHQNVEERIYPEKTFEHPKSIISIALAYPTKAQEKMPRDEKRGQFARASWGIDYHHILQDRLQKLIAFIEEQAATEAEKEHWRFRPQVDTGEYVDTAVAQRAGLGFIGKNGLLITEEFGSFVYLGEVTTNIQFEPDEPVPNGCGDCTRCITGCPTGALLGDGRMNAQKCLSYQTQTKGMMPEDYRKKMRNVIYGCDICQLVCPYNKGKDFHFHEEMEPKIEEVYPKLAPLLTISNKEFKQQFGHLAGSWRGKKPLQRNALIALANLGGREAIPQIILCLNDQRPVIRGTAAWSLGQLAKREPEQSLEALNYLLSVETEEEVIEEAQKAIHLLTSKKGSRSTE	not soluble
MLRRSSVVLARFQPYSMAVQTRFKWRHKETDRWRRLMDATCFQVDWLGQTAGPNFAQYSGHWTHVITCAHVITPWDYPNYYPPQGPTRFVSHITLADTMTQIRLVSMQGNAVYKHFTSNQHVFVHSNPRLDLCVLHPEQNLKRSGEMKMMWMQNEGYISRPRLEINETLKVGDYVWVYGMSAHESLFDEEKGPEPLMIPTGVRARVHAVTREHFFLDTTALEDNPDRGRIQMGMCGSVVMRNGKCVGMLTATVHEESDCKELAGTAMCTYSSDVFEFLLEVEKQMKNPVARQSQEETRFEQRRRAEGGVKEHKHWELDESRTARHIPVPVSLWHMEEKWVTEEDYMNSAVFGRSGAFNQETQESALGYDMNTAKTNGDRPGDIDSFMSTTTTGKPVMQGERKDYSPTGVYANVEEFKNKDVWDYNVSSEMRSLFNETVDSKDAESLNMMRKSLENIRAQRAMEKMKETVMNRTEPGFDPLKGYGHYGGSADAGAANFNPEYASAHKGSGDAYSYAQAAQQAAREQPGDHASPASTPPPSPPPPNESVIDRKKRERREAEAKYQEELRRRHGQRAVPFGDEDLSGFWERR	not soluble
MTTQITAEDVEAYLGTRENSPTMSDTVDAAVDLVESWKSTPQEKWPPRWRRGCIMLAARMDRRRNSPAGVDTMGEIGVVYVSRKDPDIAQLLEIGDFSKPIAR	not soluble
MGSDKIHHHHHHMRATLAAAARDLNAAARFGADTACREGYHPVMLNTIIHGTPTDQPPLLIAHGLYGSGRNWGVIAKRLADERQVIAVDMRNHGLSPKTQSHSYVDLAEDLAEVIAAHGGRMDVVGHSMGGKAAMMLALRHPEAVNRLVVADIAPVSYQHTQAHFITAMRSVDLARVTRRSDAQEQLAAAGVDAMLQSFFTQSLDVENKSWRLNLDTLEREMPHILSFPEVETHWDGTALFLTGAHSDYVLPEHRPQIKRLFPAARFAKIPGAGHWLHAEKPREFEATVRGFLNA	not soluble
NLREDGEKAAREVKLLLLGAGESGKSTFLKQMRIIHGQDFDQRAREEFRPTIYSNVIKGMRVLVDAREKLHIPWGDNKNQLHGDKLMAFDTRAPMAAQGMVETRVFLQYLPAIRALWEDSGIQNAYDRRREFQLGESVKYFLDNLDKLGVPDYIPSQQDILLARRPTKGIHETHFTFKDLHFKMFDVGGQRSERKKWFECFEGVTAIIFCVALSDYDQVLMEDRQTNRMHESMKLFDSICNNKWFTDTSIILFLNKKDLFEEKIKKSPLTICYPEYAGSNTYEEAAAYIQCQFEDLNKRKDTKEIYTHFTCATDTKNVQFVFDAVTDVIIKNNLKDCGLF	soluble
MGSDKIHHHHHHMTPTADIWFKDTLAAHFTRDGDQTTFSYTADYAGPPIATSLPINSEPVITRSGAIPPFFAGLLPEGRRLSSLRRNIKASADDELSLLLAVGADPVGAVAIFPHGENPQPAPPTVDFDDELDFSAALTESGIADPVALAGVQDKASARTIAVPVASDAILKLSPPEYPYLVENEAACYQLLTKNKLRIELSKVEVLHDKHGRSGLLVHRFDRTPKGKIPVEDAGQVLGIWPADKYLVSYEDIAQALTKVCASPILAMRNLAFQIAVAWLSGNGDLHAKNISIINKGRGFEISPIYDIPATAVYGDTTMALEIQGSKKDLSQKKFLKFCTSIGLPEKTAMSVANAALLATENAAETILASGNFDTRMNRDLARVLKHRRSAWGA	not soluble
GMSRGHCILAHGFESGPDALKVTALAEVAERLGWTHERPDFTDLDARRDLGQLGDVRGRLQRLLEIARAATEKGPVVLAGSSLGSYIAAQVSLQVPTRALFLMVPPTKMGPLPALDAAAVPISIVHAWHDELIPAADVIAWAQARSARLLLVDDGHRLGAHVQAASRAFAELLQSL	soluble
MKKAALMLITFLGLTACSQGVTSMPDRTQTPCGNKPNCVSTQDQREEHHLEPFTLTESATLDAIEQAALQLSGAKTAEKDGNYLRIECTSKIMRFVDDLELKIDGNTLIVRSESRVGYSDFGVNRKRAEQLRTELSKAELIKLEHHHHHH	not soluble
AIARGHGTYMDEDRLTASVAGQVERVNKLICVKPLKTRYNGEVGDVVVGRITEVQQKRWKVETNSRLDSVLLLSAVNLPGGELRRRSTQDELAMRDYLQEGDLISAEVQSIFSDGALSLHTRSLKYGKLGQGVLVYVSPSLVKRQKTHFHNLPCGASLILGNNGYVWLSPTPALQEEQAGGFYTSMEPVSLSDREVVSRLRNCLLALANQKVLLFDTSVLYCYEASLQHQIKDILKPEIMEEIVLETRQRLMEHEG	soluble
SSWFRAAPENASPGDQDVFDEEADESLLAQREWQGHMRKRVQEGYRDGLDAGKALTLQRGFNQGYKEGADVIINYGLLRGTLSALLSWCHLHGNSSTLISKISNLLDTVDQCEECVLRRLKSVTSQPRVTDLLDAIEDMDLCHVVPSDQAKGDSNAEINTDSDSPNGMGCSHPEHCRPKEHAHLEKPSLSWILEQTSSLVKQLGVPADILQHLRQL	soluble
SADEEDSLSQFDISKEETDKLVSEVIRFILFKFHQNSGTPIKREDLTQIVTKNYRQRNLATHVINEAKKKLSNVFGYDLKELQRARSSSTGQSRLPQSQSSVDSKSYVLVSELPLEVFKKHVVDETTSPVTGFTFVVLAIVQLAGGKIPEGMLLLGLLRRSFLWFRCNVLCKVVEWKSKVHYRDLFKNLKL	soluble
MSLKIIDGNIASPLGFSADGLHAGFKKRKKDFGWIVSEVPASVAGVYTTNKVIAAPLIVTRESVKKAQKMQALVVNSGVANSCTGLQGMEDAYTMQKWTATKLKIAPELVGVASTGVIGDLMPMDTLQKGLSKLVVNGNSDDFAQAILTTDTKVKTVAVTEQFGRDEVTMAGVAKGSGMIHPNMATMLAFITCDAVISSETLQLALSQNVETTFNQITVDGDTSTNDMVLVLSNGCTLNKEILPDTPEFDKFSAMLHFVMQELAKKIAKDGEGATKLIEVEVINAPNSLDACMMAKSVVGSSLVKTAIFGEDPNWGRILAAVGYAGVDVPVDNIDIYLADIPVMLASSPVDFDEEDMQDVMRADTIKIIVDLHAGDSVGKAWGCDLSYDYVKINALYRTEGHHHHHH	soluble
MGSDKIHHHHHHMTQVHFTLKSEEIQSIIEYSVKDDVSKNILTTVFNQLMENQRTEYIQAKEYERTENRQSQRNGYYERSFTTRVGTLELKVPRTRDGHFSPTVFERYQRNEKALMASMLEMYVSGVSTRKVSKIVEELCGKSVSKSFVSSLTEQLEPMVNEWQNRLLSEKNYPYLMTDVLYIKVREENRVLSKSCHIAIGITKDGDREIIGFMIQSGESEETWTTFFEYLKERGLQGTELVISDAHKGLVSAIRKSFTNVSWQRCQVHFLRNIFTTIPKKNSKSFREAVKGIFKFTDINLAREAKNRLIHDYIDQPKYSKACASLDDGFEDAFQYTVQGNSHNRLKSTNLIERLNQEVRRREKIIRIFPNQTSANRLIGAVLMDLHDEWIYSSRKYINFDK	not soluble
MEVQTETYRAAMNGTLERHFSDMIAVIPTRITIEQLKQRLENIATKVDELKIVYSDETSLIVELHMDETIIPYELHIDEANDPEEYKMYNRQDSTIVDRNFEDAAFGTEIFTRTLFVGDVLDCFFQQIQFLWNLAPDLLFVIDSSAAMKVISRNYIEYHVENELLPDIPDLYVIHSVYEDDKEGEPTQYWFHTHGLLRAGVTEIELIIPNRISSYYGIGDLFQTFANNAVENGQVPMNEPIVIAHSQQGSIHTVAVPWEKGLSYIGHKTSMDQLSSIEDEEVKLQPIDAQNTFLGGMDARDEYHQSPSVLLFKFNTSEEYIESFFKEHEEATGLMFYKTNSETDRMAYNAKNTFGYFSNIFQIEKSNEEFRFLAKFGVSYEEGKSEHMWFEMQHITEDLIQGILINEPYFIEDMSEGNSYHLDFDNLTDWVIYAGDAVIKPNNLYMFIGE	not soluble
MCRHCHFLSAIAPVSGTNKSQPGNKWDMVLLVPFDGSALSKAALTRAMEFADYRDEDITALSVIPDDAAYAREHGWLDADEAFTVEAVADRMREQAESVAPAASFRYEVPEDVSSMASTTTNITRTIREVAHEEEASIVFIGSENAGRVSTPVCSVGSPVSEDPEYDVHIVRHP	not soluble
GHMAESQALSDDIGFLLSRVGGMVLGAVNKALVPTGLRVRSYSVLVLACEQAEGVNQRGVAATMGLDPSQIVGLVDELEERGLVVRTLDPSDRRNKLIAATEEGRRLRDDAKARVDAAHGRYFEGIPDTVVNQMRDTLQSIAFPTFVEGS	soluble
